According to patent US10562947B2, “Compositions and methods for preventing or treating diseases, conditions or processes characterized by aberrant fibroblast proliferation and extracellular matrix deposition” (MOERAE MATRIX, INC., priority 2011, dated 2020):

How the values were obtained:
Experiment in all cases: Kinase Profiling Assay
Format in all cases: biochemical
Settings in all cases: 100 μM peptide
ALK4(h) = target: T1, ALK4(h) (Homo sapiens, UniProt P36896)
T1 sequence (P36896 24-505): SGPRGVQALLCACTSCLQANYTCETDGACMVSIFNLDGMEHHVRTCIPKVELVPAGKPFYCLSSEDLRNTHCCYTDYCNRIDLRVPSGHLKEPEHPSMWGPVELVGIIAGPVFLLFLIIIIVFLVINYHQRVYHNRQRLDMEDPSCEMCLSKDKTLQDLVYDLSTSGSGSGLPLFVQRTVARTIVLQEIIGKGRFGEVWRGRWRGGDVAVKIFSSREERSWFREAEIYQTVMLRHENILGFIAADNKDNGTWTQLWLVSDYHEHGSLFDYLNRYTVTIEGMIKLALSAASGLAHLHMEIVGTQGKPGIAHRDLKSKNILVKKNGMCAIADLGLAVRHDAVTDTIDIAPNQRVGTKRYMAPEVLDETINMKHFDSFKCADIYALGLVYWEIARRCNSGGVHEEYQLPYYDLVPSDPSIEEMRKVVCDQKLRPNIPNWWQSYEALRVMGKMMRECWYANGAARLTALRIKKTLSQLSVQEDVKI
Experimental: (§1) Every kinase activity measurement was conducted in duplicate.
(§2) In addition to determining the IC50 of the compound, the specificity of MK2 inhibitory peptides was assessed by examining activities of all 266 human kinases available for testing in the Millipore kinase profiling service (Table 1).

AMPKα2(h) = AMPKα2(h) (Homo sapiens, UniProt P54646)
AMPKα2(h), sequence (P54646 whole entry): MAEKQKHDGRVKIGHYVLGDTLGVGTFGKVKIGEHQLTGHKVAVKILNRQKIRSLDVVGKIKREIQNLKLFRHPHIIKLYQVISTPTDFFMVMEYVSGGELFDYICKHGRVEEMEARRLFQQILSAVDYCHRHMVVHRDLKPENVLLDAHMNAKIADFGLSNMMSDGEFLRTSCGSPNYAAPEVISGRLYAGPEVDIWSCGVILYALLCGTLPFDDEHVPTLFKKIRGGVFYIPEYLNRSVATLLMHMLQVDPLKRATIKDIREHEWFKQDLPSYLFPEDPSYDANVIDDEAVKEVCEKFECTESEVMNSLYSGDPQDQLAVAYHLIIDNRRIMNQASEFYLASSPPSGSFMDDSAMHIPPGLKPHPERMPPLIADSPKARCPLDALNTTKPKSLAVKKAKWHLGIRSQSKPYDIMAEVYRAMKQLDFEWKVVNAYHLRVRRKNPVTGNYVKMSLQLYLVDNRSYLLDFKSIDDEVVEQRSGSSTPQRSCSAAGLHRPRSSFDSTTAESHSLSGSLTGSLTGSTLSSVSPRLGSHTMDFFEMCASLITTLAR
AMPKα2(h), sequence (Q9Y478 whole entry partner): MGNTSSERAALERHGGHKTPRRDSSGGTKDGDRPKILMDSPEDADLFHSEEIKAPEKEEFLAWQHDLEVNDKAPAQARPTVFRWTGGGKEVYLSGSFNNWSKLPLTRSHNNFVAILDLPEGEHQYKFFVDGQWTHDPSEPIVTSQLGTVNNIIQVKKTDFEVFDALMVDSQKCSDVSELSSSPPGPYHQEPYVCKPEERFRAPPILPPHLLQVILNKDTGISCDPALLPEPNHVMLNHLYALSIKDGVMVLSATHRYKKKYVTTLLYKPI
AMPKα2(h), sequence (P54619 whole entry partner): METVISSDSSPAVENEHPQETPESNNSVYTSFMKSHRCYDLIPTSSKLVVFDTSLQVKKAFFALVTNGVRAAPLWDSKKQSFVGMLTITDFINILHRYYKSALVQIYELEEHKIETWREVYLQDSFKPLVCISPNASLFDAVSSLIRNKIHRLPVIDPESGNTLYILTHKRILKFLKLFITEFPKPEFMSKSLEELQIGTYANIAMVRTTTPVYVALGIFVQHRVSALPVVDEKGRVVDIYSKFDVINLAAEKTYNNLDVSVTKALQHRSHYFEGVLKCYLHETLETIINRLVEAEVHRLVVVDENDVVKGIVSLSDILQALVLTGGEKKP
Experimental: as §1, §2

CDK2/cyclinE(h) = CDK2/cyclinE(h) (Homo sapiens, UniProt P24941)
Experimental: as §1, §2

CDK9/cyclin T1(h) = CDK9/cyclin T1(h) (Homo sapiens, UniProt P50750)
CDK9/cyclin T1(h), sequence (P50750 whole entry): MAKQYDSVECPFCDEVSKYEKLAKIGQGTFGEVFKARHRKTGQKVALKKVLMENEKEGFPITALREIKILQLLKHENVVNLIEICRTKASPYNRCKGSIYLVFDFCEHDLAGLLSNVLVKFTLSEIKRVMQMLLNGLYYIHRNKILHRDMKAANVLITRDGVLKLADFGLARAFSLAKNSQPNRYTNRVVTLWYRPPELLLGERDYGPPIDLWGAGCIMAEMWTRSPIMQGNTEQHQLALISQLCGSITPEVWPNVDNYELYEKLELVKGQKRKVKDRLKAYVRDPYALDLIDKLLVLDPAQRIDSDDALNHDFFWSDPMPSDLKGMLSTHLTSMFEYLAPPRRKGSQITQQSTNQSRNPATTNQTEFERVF
CDK9/cyclin T1(h), sequence (O60563 whole entry partner): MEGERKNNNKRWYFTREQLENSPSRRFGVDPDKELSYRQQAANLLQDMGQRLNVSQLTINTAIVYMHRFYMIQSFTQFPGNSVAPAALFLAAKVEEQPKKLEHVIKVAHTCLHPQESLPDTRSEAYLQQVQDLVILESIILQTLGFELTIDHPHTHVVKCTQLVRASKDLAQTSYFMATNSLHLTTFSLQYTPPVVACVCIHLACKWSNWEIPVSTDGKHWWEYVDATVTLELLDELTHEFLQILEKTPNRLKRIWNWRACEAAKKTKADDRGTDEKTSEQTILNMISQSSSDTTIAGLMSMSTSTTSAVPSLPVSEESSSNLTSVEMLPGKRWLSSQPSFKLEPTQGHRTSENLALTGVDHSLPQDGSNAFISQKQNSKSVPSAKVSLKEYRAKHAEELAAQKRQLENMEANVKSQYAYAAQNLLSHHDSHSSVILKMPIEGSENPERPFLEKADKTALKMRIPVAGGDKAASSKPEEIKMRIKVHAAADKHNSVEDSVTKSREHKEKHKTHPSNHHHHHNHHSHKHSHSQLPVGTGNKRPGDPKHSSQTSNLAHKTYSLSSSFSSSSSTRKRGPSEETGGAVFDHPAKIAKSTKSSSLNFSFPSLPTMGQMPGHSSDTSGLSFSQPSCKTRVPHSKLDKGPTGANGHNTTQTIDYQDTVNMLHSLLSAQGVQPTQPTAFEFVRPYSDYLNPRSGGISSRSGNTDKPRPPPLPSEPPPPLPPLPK
Experimental: as §1, §2

Flt3(D835Y)(h) = Flt3(D835Y)(h) (Homo sapiens, UniProt P36888, D835Y)
Experimental: as §1, §2

MSK2(h) = MSK2(h) (Homo sapiens, UniProt O75676)
MSK2(h), sequence (O75676 whole entry): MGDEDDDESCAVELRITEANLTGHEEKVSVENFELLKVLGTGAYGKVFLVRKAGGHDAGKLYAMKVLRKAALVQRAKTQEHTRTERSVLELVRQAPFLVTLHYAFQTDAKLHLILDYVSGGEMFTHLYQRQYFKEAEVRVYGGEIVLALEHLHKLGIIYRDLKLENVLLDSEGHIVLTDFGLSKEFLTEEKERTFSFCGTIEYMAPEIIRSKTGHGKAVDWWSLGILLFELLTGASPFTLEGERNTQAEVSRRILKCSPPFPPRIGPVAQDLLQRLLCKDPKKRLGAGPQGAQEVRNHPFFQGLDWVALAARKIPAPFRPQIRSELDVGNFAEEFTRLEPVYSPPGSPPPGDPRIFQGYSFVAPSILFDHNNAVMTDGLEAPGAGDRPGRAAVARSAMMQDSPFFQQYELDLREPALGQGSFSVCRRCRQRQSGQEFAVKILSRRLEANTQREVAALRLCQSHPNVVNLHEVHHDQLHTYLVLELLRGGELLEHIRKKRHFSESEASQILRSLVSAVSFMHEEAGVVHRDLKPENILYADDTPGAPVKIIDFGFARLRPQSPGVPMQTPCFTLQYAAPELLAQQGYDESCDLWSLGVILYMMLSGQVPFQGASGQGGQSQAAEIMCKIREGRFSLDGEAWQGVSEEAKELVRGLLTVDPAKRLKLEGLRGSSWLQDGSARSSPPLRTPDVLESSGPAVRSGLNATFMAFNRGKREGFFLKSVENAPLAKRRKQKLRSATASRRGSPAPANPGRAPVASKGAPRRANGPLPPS
Experimental: as §1, §2

MuSK(h) = target: T2, MuSK(h) (Homo sapiens, UniProt O15146)
T2 sequence (O15146 24-869): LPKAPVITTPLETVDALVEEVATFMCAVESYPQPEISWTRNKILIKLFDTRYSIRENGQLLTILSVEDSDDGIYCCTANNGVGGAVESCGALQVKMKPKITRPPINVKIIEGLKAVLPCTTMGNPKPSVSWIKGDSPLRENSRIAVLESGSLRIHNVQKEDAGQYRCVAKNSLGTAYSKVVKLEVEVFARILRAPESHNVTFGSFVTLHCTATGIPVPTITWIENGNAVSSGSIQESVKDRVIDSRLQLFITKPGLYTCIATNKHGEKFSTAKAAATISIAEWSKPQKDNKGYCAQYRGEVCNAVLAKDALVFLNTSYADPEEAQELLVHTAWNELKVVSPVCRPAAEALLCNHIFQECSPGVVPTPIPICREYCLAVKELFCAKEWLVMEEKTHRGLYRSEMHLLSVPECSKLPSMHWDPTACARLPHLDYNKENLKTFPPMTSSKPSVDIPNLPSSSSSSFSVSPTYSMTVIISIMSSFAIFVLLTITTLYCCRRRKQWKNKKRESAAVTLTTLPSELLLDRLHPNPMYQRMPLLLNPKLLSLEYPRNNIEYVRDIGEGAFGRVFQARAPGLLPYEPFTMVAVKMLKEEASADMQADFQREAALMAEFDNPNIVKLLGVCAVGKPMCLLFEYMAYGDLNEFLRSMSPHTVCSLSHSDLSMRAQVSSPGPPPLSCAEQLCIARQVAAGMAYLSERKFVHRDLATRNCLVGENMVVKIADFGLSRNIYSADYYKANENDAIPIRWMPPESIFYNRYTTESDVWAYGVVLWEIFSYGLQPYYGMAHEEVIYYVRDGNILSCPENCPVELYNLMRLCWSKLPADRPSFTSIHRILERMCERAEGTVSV
Experimental: as §1, §2

PDGFRβ(h) = PDGFRβ(h) (Homo sapiens, UniProt P09619)
PDGFRβ(h), sequence (P09619 33-1106): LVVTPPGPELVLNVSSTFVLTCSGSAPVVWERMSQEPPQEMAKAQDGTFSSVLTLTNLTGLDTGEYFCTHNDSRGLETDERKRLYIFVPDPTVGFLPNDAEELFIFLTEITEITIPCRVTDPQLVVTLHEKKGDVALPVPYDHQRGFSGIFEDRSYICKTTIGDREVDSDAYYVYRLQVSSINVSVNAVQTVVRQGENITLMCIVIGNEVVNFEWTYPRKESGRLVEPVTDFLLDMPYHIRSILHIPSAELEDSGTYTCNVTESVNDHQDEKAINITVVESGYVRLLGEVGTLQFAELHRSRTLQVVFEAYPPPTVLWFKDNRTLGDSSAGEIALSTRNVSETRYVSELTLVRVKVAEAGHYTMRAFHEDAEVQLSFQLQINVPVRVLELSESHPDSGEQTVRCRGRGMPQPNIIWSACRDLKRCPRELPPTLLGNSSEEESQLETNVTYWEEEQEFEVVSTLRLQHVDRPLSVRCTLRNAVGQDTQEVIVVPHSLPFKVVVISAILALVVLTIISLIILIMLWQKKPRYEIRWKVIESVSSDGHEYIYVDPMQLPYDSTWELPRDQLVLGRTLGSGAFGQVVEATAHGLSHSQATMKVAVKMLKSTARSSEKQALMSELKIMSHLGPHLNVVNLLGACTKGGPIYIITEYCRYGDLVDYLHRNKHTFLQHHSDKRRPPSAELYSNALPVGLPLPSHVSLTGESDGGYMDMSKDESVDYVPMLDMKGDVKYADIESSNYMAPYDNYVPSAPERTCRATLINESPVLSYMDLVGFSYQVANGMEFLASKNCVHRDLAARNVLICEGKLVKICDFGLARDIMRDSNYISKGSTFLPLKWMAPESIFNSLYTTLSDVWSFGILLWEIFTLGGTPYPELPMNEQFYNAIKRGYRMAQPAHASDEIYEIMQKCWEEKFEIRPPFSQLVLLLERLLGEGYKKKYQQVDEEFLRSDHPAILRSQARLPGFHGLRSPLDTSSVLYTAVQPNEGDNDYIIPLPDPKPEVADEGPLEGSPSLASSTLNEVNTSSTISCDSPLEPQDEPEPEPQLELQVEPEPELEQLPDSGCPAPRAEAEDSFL
Experimental: as §1, §2

ULK2(h) = target: T3, ULK2(h) (Homo sapiens, UniProt Q8IYT8)
T3 sequence (Q8IYT8 1-1036): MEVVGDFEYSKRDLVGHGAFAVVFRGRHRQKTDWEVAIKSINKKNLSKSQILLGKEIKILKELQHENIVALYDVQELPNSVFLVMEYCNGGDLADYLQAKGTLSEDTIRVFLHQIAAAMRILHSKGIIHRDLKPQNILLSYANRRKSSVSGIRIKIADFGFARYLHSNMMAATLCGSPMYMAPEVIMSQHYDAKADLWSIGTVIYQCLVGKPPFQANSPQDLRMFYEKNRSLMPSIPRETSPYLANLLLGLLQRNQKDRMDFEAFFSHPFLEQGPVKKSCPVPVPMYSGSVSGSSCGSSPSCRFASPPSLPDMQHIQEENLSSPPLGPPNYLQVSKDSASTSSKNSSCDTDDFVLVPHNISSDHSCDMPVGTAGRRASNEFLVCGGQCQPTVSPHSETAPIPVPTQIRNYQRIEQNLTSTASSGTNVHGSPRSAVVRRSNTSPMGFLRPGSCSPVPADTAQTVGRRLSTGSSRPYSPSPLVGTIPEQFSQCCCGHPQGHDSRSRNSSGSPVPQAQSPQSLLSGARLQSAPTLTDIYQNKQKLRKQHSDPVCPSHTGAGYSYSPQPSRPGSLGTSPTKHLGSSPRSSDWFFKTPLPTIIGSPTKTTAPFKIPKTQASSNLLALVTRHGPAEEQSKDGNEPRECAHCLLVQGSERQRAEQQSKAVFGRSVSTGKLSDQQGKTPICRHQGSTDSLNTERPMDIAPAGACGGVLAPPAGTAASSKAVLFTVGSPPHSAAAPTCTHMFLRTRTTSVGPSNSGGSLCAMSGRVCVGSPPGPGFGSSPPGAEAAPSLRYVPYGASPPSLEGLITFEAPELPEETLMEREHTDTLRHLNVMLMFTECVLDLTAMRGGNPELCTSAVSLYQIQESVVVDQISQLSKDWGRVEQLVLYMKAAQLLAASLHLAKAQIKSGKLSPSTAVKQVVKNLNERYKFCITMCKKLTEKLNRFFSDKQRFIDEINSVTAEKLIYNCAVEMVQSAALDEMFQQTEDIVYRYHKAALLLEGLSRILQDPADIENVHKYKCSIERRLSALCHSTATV
Experimental: as §1, §2

FGFR1(V561M)(h) = FGFR1(V561M)(h) (Homo sapiens, UniProt P11362, V561M)
FGFR1(V561M)(h), sequence (P11362 22-822 V561M): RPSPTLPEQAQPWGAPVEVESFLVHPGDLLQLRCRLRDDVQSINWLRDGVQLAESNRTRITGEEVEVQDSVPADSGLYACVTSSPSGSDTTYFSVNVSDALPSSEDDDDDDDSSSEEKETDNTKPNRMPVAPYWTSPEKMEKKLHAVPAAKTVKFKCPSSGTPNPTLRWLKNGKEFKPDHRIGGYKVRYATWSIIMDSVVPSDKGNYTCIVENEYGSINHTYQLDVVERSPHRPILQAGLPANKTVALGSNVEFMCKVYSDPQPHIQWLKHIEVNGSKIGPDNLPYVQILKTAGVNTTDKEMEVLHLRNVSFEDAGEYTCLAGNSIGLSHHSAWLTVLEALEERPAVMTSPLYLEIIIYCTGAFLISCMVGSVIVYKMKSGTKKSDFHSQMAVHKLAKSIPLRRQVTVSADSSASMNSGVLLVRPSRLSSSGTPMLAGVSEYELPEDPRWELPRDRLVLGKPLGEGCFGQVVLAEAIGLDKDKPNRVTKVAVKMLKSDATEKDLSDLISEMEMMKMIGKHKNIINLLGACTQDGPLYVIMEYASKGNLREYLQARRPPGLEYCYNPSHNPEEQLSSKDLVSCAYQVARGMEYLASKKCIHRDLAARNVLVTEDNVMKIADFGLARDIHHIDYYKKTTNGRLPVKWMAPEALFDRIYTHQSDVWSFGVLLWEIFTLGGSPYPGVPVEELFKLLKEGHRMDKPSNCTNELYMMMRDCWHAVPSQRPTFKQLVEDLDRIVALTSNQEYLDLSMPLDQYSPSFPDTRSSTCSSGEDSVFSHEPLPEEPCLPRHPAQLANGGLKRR
Experimental: as §1, §2

Sequence	ALK4(h) % activity (ALK4(h)) [%]	AMPKα2(h) % activity (AMPKα2(h)) [%]	CDK2/cyclinE(h) % activity (CDK2/cyclinE(h)) [%]	CDK9/cyclin T1(h) % activity (CDK9/cyclin T1(h)) [%]	Flt3(D835Y)(h) % activity (Flt3(D835Y)(h)) [%]	MSK2(h) % activity (MSK2(h)) [%]	MuSK(h) % activity (MuSK(h)) [%]	PDGFRβ(h) % activity (PDGFRβ(h)) [%]	ULK2(h) % activity (ULK2(h)) [%]	FGFR1(V561M)(h) % activity (FGFR1(V561M)(h)) [%]
HRRIKAWLKKIKALARQLGVAA (Mammalian) [MMI-0500]	81	9	19	6	65	14	27	40	124	–
FAKLAARLYRKALARQLGVAA [MMI-0300]	140	54	94	91	80	56	93	81	122	74
YARAAARQARAKALNRQLGVA (Mammalian) [MMI-0200]	152	88	–	–	–	88	–	137	132	72
KAFAKLAARLYRKALARQLGVAA [MMI-0400]	130	58	83	235	71	52	93	53	131	74
